Source: US12226546 (University of California, dated 2025)
Blank lines part the entries; values can stand above or below the binder they belong to.

Tests used:
[1] = biological target: T1, FITC labeled (M^OA)155E60 (not fully specified; L-methionine sulfoxide (M^O) residues in the statistical M^O/A segment; fluorescein isothiocyanate (FITC) conjugated onto the N-terminal amine); test: laser scanning confocal microscopy of fluorescently labeled hydrogel, 3.0 wt % in PBS
T1 construct: Fluorescently labeled form of (M^OA)155E60 used for confocal microscopy; also called E labeled (FITC)
T1 chain: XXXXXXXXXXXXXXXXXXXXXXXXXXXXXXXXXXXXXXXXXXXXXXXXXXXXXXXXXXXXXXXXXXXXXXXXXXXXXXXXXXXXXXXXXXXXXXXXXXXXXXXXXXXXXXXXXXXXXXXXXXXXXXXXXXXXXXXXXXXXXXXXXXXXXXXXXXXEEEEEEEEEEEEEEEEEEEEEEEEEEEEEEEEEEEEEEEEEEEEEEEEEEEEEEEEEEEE
Source text: Laser scanning confocal microscopy (LSCM) was then used to visualize the labeled chains and the hydrogel network (FIG. 3A-3B).
Example 8—Laser Scanning Confocal Microscopy (LSCM) of Fluorescently Labeled Hydrogels LSCM images of hydrogels (3.0 wt % in PBS) were taken on a Leica TCS-SP1 MP-Inverted Confocal and Multiphoton Microscope equipped with an argon laser (476 and 488 nm blue lines), a diode (DPSS) laser (561 nm yellow-green line), and a helium-neon laser (633 nm far red line). Fluorescently labeled hydrogel samples were visualized on glass slides with a spacer between the slide and the cover slip (double-sided tape) allowing the self-assembled structures to be minimally disturbed during focusing. A Z-slice thickness of 0.78 µm was used. Sample imaging was performed at the Advanced Light Microscopy/Spectroscopy Center (ALMS) at the UCLA California NanoSystems Institute (CNSI).

poly(L-methionine …) [2] = biological target: T2, poly(L-methionine sulfoxide0.88-stat-L-alanine0.12)155-block-poly(L-glutamate)60, (M^OA)155E60 (not fully specified; L-methionine sulfoxide (M^O) residues in the statistical M^O/A segment (ca. 88 mol % M^O, 12 mol % Ala)); test: mixing of equal volumes of 5.0 wt % solutions in 1xPBS; polyion complex hydrogel formation
T2 chain: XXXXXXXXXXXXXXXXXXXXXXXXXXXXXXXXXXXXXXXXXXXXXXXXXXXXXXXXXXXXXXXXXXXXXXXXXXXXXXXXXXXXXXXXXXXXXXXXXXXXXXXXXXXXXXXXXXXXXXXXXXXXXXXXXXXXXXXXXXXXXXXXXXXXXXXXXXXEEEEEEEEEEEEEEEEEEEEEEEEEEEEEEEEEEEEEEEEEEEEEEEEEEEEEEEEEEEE

poly(L-methionine …) [3] = biological target: T3, poly(L-methionine sulfoxide-stat-L-alanine)155-block-poly(L-glutamate-Na)30, (M^OA)155E30 (not fully specified; L-methionine sulfoxide (M^O) residues in the statistical M^O/A segment (ca. 88 mol % M^O, 12 mol % Ala)); test: as above
T3 chain: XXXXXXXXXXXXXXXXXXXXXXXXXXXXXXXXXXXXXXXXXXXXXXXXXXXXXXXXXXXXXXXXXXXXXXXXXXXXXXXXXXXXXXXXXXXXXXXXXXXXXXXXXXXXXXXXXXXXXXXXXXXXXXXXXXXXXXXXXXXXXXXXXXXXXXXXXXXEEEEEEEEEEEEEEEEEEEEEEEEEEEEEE

poly(L-methionine …) [4] = biological target: T4, poly(L-methionine sulfoxide-stat-L-alanine)155-block-poly(L-glutamate-Na)90, (M^OA)155E90 (not fully specified; L-methionine sulfoxide (M^O) residues in the statistical M^O/A segment (ca. 88 mol % M^O, 12 mol % Ala)); test: mixing of length-mismatched copolypeptides at E to K stoichiometry; hydrogel formation
T4 chain: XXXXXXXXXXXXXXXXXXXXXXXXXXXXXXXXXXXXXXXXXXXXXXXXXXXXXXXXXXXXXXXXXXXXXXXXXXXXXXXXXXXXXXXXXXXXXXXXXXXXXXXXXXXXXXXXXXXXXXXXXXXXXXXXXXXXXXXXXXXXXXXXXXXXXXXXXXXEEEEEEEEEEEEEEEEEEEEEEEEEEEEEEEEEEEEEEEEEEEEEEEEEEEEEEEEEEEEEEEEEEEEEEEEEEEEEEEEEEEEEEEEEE

poly(L-methionine …) [5] = biological target: T4, poly(L-methionine …); test: mixing of equal volumes of 5.0 wt % solutions in 1xPBS; polyion complex hydrogel formation
poly(L-methionine …) [6] = biological target: T5, poly(L-methionine sulfoxide-stat-L-alanine)155-block-poly(L-glutamate-Na)120, (M^OA)155E120 (not fully specified; L-methionine sulfoxide (M^O) residues in the statistical M^O/A segment (ca. 88 mol % M^O, 12 mol % Ala)); test: as above
T5 chain: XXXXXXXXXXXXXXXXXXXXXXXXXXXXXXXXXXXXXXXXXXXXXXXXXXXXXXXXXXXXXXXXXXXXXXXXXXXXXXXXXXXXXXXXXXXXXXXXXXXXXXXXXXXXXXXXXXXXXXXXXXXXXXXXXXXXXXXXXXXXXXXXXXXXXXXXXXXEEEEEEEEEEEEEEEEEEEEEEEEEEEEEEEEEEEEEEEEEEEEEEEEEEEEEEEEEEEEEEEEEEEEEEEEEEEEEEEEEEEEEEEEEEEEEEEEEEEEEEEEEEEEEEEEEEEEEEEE

binding result [1]: binds
B1: TRITC labeled (M^OA)155K60 (other)
chain: XXXXXXXXXXXXXXXXXXXXXXXXXXXXXXXXXXXXXXXXXXXXXXXXXXXXXXXXXXXXXXXXXXXXXXXXXXXXXXXXXXXXXXXXXXXXXXXXXXXXXXXXXXXXXXXXXXXXXXXXXXXXXXXXXXXXXXXXXXXXXXXXXXXXXXXXXXXKKKKKKKKKKKKKKKKKKKKKKKKKKKKKKKKKKKKKKKKKKKKKKKKKKKKKKKKKKKK
modifications: X: randomised place (mixture); also: positions 1-155 statistical Met(O)/Ala copolymer, polydisperse, nominal block lengths, TRITC on an unspecified Lys side chain, about 1 probe per 5 chains, Lys as HCl salt
notes: Fluorescently labeled form of (M^OA)155K60 used for confocal microscopy; also called K labeled (TRITC)

binding result (poly(L-methionine …) [2]): binds
B2: poly(L-methionine sulfoxide0.88-stat-L-alanine0.12)155-block-poly(L-lysine)60, (M^OA)155K60 (other)
chain: XXXXXXXXXXXXXXXXXXXXXXXXXXXXXXXXXXXXXXXXXXXXXXXXXXXXXXXXXXXXXXXXXXXXXXXXXXXXXXXXXXXXXXXXXXXXXXXXXXXXXXXXXXXXXXXXXXXXXXXXXXXXXXXXXXXXXXXXXXXXXXXXXXXXXXXXXXXKKKKKKKKKKKKKKKKKKKKKKKKKKKKKKKKKKKKKKKKKKKKKKKKKKKKKKKKKKKK
modifications: not fully specified; X: randomised place (mixture); also: X1-155: Met(O) or Ala, statistical (ca. 88 mol % Met(O), 12 mol % Ala), HCl salt

binding result (poly(L-methionine …) [3]): binds
binding result (poly(L-methionine …) [4]): binds
B3: poly(L-methionine sulfoxide-stat-L-alanine)155-block-poly(L-lysine-HCl)30, (M^OA)155K30 (other)
chain: XXXXXXXXXXXXXXXXXXXXXXXXXXXXXXXXXXXXXXXXXXXXXXXXXXXXXXXXXXXXXXXXXXXXXXXXXXXXXXXXXXXXXXXXXXXXXXXXXXXXXXXXXXXXXXXXXXXXXXXXXXXXXXXXXXXXXXXXXXXXXXXXXXXXXXXXXXXKKKKKKKKKKKKKKKKKKKKKKKKKKKKKK
modifications: not fully specified; L-methionine sulfoxide (M^O) residues in the statistical M^O/A segment (ca. 88 mol % M^O, 12 mol % Ala)

binding result (poly(L-methionine …) [5]): binds
B4: poly(L-methionine sulfoxide-stat-L-alanine)155-block-poly(L-lysine-HCl)90, (M^OA)155K90 (other)
chain: XXXXXXXXXXXXXXXXXXXXXXXXXXXXXXXXXXXXXXXXXXXXXXXXXXXXXXXXXXXXXXXXXXXXXXXXXXXXXXXXXXXXXXXXXXXXXXXXXXXXXXXXXXXXXXXXXXXXXXXXXXXXXXXXXXXXXXXXXXXXXXXXXXXXXXXXXXXKKKKKKKKKKKKKKKKKKKKKKKKKKKKKKKKKKKKKKKKKKKKKKKKKKKKKKKKKKKKKKKKKKKKKKKKKKKKKKKKKKKKKKKKKK
modifications: not fully specified; X: randomised place (mixture); also: X1-155: Met(O) or Ala, statistical (ca. 88 mol % Met(O)), HCl salt

binding result (poly(L-methionine …) [6]): binds
B5: poly(L-methionine sulfoxide-stat-L-alanine)155-block-poly(L-lysine-HCl)120, (M^OA)155K120 (other)
chain: XXXXXXXXXXXXXXXXXXXXXXXXXXXXXXXXXXXXXXXXXXXXXXXXXXXXXXXXXXXXXXXXXXXXXXXXXXXXXXXXXXXXXXXXXXXXXXXXXXXXXXXXXXXXXXXXXXXXXXXXXXXXXXXXXXXXXXXXXXXXXXXXXXXXXXXXXXXKKKKKKKKKKKKKKKKKKKKKKKKKKKKKKKKKKKKKKKKKKKKKKKKKKKKKKKKKKKKKKKKKKKKKKKKKKKKKKKKKKKKKKKKKKKKKKKKKKKKKKKKKKKKKKKKKKKKKKKK
modifications: X: randomised place (mixture); also: X1-155: Met(O) or Ala, statistical (ca. 88 mol % Met(O)), polydisperse, lengths nominal, HCl salt
